Earlier results in publication PMC8070608.
Read-outs that look alike come from different tables or passages of the source.

Experiments:
tPA (Homo sapiens) [1] = target: tPA (Homo sapiens) (UniProt P00750)
[2] = target: plasminogen (Homo sapiens) (UniProt P00747)
tPA (Homo sapiens) [3] = target: tPA (Homo sapiens) (UniProt P00750); remark: listed apart in the source

Chain of UniProt P00750 (P00750 36-562): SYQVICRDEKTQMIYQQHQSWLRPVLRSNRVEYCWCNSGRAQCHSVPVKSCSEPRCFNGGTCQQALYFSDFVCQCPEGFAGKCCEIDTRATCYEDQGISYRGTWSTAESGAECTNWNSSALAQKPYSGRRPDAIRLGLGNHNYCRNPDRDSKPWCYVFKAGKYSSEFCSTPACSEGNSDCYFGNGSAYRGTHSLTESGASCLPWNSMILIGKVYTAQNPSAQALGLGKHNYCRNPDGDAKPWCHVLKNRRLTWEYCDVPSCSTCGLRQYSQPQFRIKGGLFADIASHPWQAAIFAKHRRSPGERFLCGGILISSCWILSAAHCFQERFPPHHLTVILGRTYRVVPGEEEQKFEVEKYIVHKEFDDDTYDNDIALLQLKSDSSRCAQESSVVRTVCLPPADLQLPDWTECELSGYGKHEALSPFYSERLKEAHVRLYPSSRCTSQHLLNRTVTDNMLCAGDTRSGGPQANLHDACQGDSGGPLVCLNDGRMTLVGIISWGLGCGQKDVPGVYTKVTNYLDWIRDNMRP
Chain of UniProt P00747 (P00747 20-810): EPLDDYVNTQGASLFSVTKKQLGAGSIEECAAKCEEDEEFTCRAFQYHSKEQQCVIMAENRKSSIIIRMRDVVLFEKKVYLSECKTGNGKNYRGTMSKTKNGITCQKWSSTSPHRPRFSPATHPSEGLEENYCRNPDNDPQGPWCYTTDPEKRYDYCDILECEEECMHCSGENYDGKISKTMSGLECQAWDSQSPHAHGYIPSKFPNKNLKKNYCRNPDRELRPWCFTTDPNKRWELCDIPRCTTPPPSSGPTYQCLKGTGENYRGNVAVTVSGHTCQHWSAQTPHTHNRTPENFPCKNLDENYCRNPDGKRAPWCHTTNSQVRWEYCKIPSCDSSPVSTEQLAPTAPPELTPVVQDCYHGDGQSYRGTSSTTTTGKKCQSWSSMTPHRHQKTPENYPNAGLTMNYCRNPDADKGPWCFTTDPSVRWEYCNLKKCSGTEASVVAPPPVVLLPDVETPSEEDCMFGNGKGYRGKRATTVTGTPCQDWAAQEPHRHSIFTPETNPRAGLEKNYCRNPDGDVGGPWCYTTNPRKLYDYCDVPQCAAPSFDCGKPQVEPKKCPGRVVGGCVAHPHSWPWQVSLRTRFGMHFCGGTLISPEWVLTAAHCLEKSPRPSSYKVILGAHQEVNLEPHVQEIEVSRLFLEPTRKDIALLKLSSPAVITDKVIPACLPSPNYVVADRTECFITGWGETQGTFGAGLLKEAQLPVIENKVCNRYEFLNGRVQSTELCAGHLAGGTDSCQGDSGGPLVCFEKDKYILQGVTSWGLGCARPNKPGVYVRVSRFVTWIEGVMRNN

Substance | Kd (tPA (Homo sapiens) [1]) | Kd [2] | Kd (tPA (Homo sapiens) [3])
p11 (from UniProt P60903) | 680 nM | 110 nM | –
p36 (annexin A2) (from UniProt P07355) | – | – | 48 nM
